Target: Pro-LC3B, Q9GZQ8
Experiment: fluorescence anisotropy
Details: chain shown with the change; FITC-labeled peptide 1 μM; read at the highest Pro-LC3B concentration plotted (about 50 μM); parent: est. 0.071; read off a plot

B1: BAG6 LIR1 peptide (residues 124-143), P46379-2 Y132A; V135A (peptide)
chain: VHDRNANSAVMAGTFNLPSD
Binder B1 has a response of -0.002.

Source: publication PMC7674511
